{"source": "patent US10400249B2", "about": "“HPPD variants and methods of use” (priority 2014, dated 2019)", "key": {"[1]": {"test_system": "T0 soybean plants", "experiment": "greenhouse spray test of T0 soybean plants for tolerance to mesotrione", "format": "in vivo", "conditions": "316 grams AI per hectare; for Number of T0 soybean plants with herbicide tolerance rating 0 (completely bleached) / Number of T0 soybean plants with herbicide tolerance rating 1 (slight tolerance) / Number of T0 soybean plants with herbicide tolerance rating 2 (moderate tolerance) / Number of T0 soybean plants with herbicide tolerance rating 3 (nearly perfect tolerance): HT-triple plant expression cassette, mesotrione 3X field rate, seven days after treatment", "protocol": "T0 soybean plants expressing an HPPD inhibitor tolerant enzyme of the present invention, along with a gene conferring tolerance to glyphosate and a gene conferring tolerance to glufosinate or having a “plant expression cassette”, which includes only an HPPD inhibitor tolerant enzyme of the present invention, were tested for tolerance to mesotrione. Prior greenhouse trials with the transgenic plants, soy transformants were routinely analyzed for the expression and presence of the transgenes using the ELISA protein detection method (see detailed description under item D and H). Only plants recovering in the selection media and having a detectable HPPD transgene protein expression were used for the herbicide tolerance analysis. A DeVries Tracker Sprayer was calibrated prior to each spraying. The chemical formulation used for mesotrione (MST) testing was Callisto® 4 SC formulation supplemented with ammonium sulfate and methylated rape seed oil (Actirob). Spray tests were conducted using 3× the field rate (equivalent to 9 fluid ounce per acre of the same herbicide formulation that containing 40% the active ingredient (AI), mesotrione), which equals 316 grams AI per hectare. Tolerance was evaluated one week after spraying. […] A tolerance rating of “0” was assigned to plants that their shoot apexes, newly emerged trifoliates and some axillary buds were completely bleached. A rating of “1” was assigned to plants having slight tolerance, i.e., the newest plant shoot tissues had some green leaves and are not bleached completely. A rating of “2” was assigned to plants showing moderate tolerance, i.e., more than 50% of the leaf area of the top three trifoliates showing no chlorosis or bleaching damage. A rating of “3” was assigned to plants showing nearly perfect tolerance, i.e., less than 10% of the leaf area showing chlorosis or very slight bleaching."}, "[2]": {"test_system": "Pseudomonas fluorescens HPPD protein", "experiment": "HGD assay: HPPD activity coupled to HGA dioxygenase, pI50 and type of inhibition (time-course)", "format": "biochemical", "conditions": "for tolerance (pI50) Cmpd. 1: inhibitor Cmpd. 1; for tolerance (pI50) Cmpd. 1 / tolerance (pI50) Cmpd. 2 / tolerance (pI50) Cmpd. 3 / tolerance (pI50) Cmpd. 4 / tolerance (pI50) Cmpd. 5 / tolerance (pI50) DKN / tolerance (pI50) MST / tolerance (pI50) TBT: HGD assay; for tolerance (pI50) Cmpd. 2: inhibitor Cmpd. 2; for tolerance (pI50) Cmpd. 3: inhibitor Cmpd. 3; for tolerance (pI50) Cmpd. 4: inhibitor Cmpd. 4; for tolerance (pI50) Cmpd. 5: inhibitor Cmpd. 5; for tolerance (pI50) DKN: inhibitor diketonitrile (DKN); for tolerance (pI50) MST: inhibitor mesotrione (MST); for tolerance (pI50) TBT: inhibitor tembotrione (TBT)", "protocol": "(§1) HPPD proteins were produced and purified as described in WO2011/076882. The activity of HPPD proteins in absence or presence of HPPD inhibitors was determined using either the so called OD assay or the HGD assay.\n(§2) • a) The OD assay: The HPPD activity was determined colourimetrically by measuring the amount of HPP remaining in the assay mixture at the end of the incubation period after derivatisation of HPP with 2,4-dinitrophenylhydrazine (DNP) to form an amber-brown colored 2,4-dinitrophenylhydrazone under alkaline conditions. The assay was carried out at room temperature in Greiner F-bottom 96 well microplates. The assay mixture contained 50 mM Tris-HCl pH 7.8, 0.5 mM HPP, 10 mM ascorbate, 650 units of catalase and appropriate amounts of purified HPPD enzyme in a total assay volume of 100 μl. The reaction was started by the addition of enzyme. After an incubation time of 24 minutes, the reaction was stopped by the addition of 50 μl of a solution of 0.04% DNP dissolved in 3.8 N HCl. After a further 15-minute incubation period 100 μl of a 5 N KOH solution was added to the reaction mixture and the amount of unconsumed HPP was measured photometrically at 405 nm. Enzyme activity was calculated as the difference in E405 between assays lacking enzyme (negative control) and the enzyme containing assays (ΔE405=E405(negative control)−E405). Enzyme activity (nmol substrate consumed per min) was calculated from a calibration curve generated from HPP. pI50-values (the negative log value of the concentration of inhibitor necessary to inhibit 50% of the enzyme activity in molar concentration were determined from dose-response plots of HPPD activity versus inhibitor concentration tested (5.0×10^−6, 1.0×10^−5, 2.5×10^−5, 4.0×10^−5, 7.0×10^−5, 1.0×10^−4, 2.0×10^−4 and 5.0×10^−4M) using the 4 Parameter Logistic Model or Sigmoidal Dose-Response Model of the ID Business Solutions Ltd. XLfit software suite. The result “>5.6” means that the inhibition at the lowest inhibitor concentration tested was higher than 85% and the pI50-value could therefore not be precisely calculated within in the range of concentration of inhibitor tested. The result “<2.5” means that the inhibition at the highest inhibitor concentration tested was lower than 25% and the pI50-value could therefore not be precisely calculated within in the range of concentration of inhibitor tested. “n.d.” means not determined. • b) The HGD assay: With the HGD assay HPPD activity was measured at room temperature by adding appropriate amounts of HPPD to a solution of 200 mM Tris-HCl pH 7.6, 10 mM ascorbate, 20 μM FeSO4, 650 units of catalase, 8 μg HGA dioxygenase (HGA: homogentisate) and 600 μM HPP in a total volume of 1 ml. Initial reaction rates in the absence or presence of inhibitors were determined from the increase in absorbance at 318 nm due to the formation of maleylacetoacetate (ε318=11,900 M−1 cm-1). pI50-values (the negative log value of the concentration of inhibitor necessary to inhibit 50% of the enzyme activity in molar concentration were determined from dose-response plots of HPPD activity versus inhibitor concentration tested using the 4 Parameter Logistic Model or Sigmoidal Dose-Response Model of the ID Business Solutions Ltd. XLfit software suite. Due to the UV absorption of the HPPD inhibitors tested, inhibitor concentrations >100 μM could not be tested. The result “<4” means that the inhibition at 100 μM inhibitor concentration was lower than 25% and the pI50-value could therefore not be precisely calculated within in the range of concentration of inhibitor tested. “n.d.” means not determined. The HGD assay allowed to continuously follow HPPD-catalyzed HGA formation over time was therefore used to determine the inhibition type of the HPPD inhibitors tested. […] When in the presence of an inhibitor the HPPD activity was inhibited but the inhibition was found not to […] in a time-dependent manner, the inhibitor was called reversible (abbreviation “rev”). […]"}, "[3]": {"test_system": "Pseudomonas fluorescens HPPD protein", "experiment": "OD assay: HPPD activity and pI50 from HPP remaining after derivatisation with DNP", "format": "biochemical", "conditions": "for Activity DeltaE/24 min μg Protein: HPPD enzyme activity of the clone; for tolerance (pI50) Cmpd. 2: inhibitor Cmpd. 2; for tolerance (pI50) DKN: inhibitor diketonitrile (DKN), negative log of molar concentration; for tolerance (pI50) MST: inhibitor mesotrione (MST); for tolerance (pI50) TBT: inhibitor tembotrione (TBT)", "protocol": "as §1, §2"}}, "data": [{"molecule": "CS(=O)(=O)c1ccc(C(=O)C2C(=O)CCCC2=O)c([N+](=O)[O-])c1", "note": "[mesotrione, 2-[4-(methylsulfonyl)-2-nitrobenzoyl]-1,3-cyclohexanedione, reference compound]", "values": [{"measurement": "leaf damage of wild type soybean plants", "setting": "[1]; Callisto 4 SC formulation, 3× field rate, one week after spraying", "value": 100, "unit": "%"}]}, {"molecule": "FLP129: PfHPPD variant E335P, G336F, K339A, A340Q (protein, HPPD variant - FLP129, PfHPPD variant E335P, G336F, K339A, A340Q) MADLYENPMGLMGFEFIEFASPTPGTLEPIFEIMGFTKVATHRSKNVHLYRQGEINLILNNEPNSIASYFAAEHGPSVCGMAFRVKDSQKAYNRALELGAQPIHIDTGPMELNLPAIKGIGGAPLYLIDRFGEGSSIYDIDFVYLEGVERNPVGAGLKVIDHLTHNVYRGRMVYWANFYEKLFNFREARYFDIKGEYTGLTSKAMSAPDGMIRIPLNEESSKGAGQIEEFLMQFNGEGIQHVAFLTDDLVKTWDALKKIGMRFMTAPPDTYYEMLEGRLPDHGEPVDQLQARGILLDGSSVEGDKRLLLQIFSETLMGPVFFEFIQRKGDDGFGPFNFAQLFESIERDQVRRGVLTAD", "values": [{"measurement": "Number of T0 soybean plants with herbicide tolerance rating 0 (completely bleached)", "setting": "[1]", "value": 13}, {"measurement": "Number of T0 soybean plants with herbicide tolerance rating 1 (slight tolerance)", "setting": "[1]", "value": 18}, {"measurement": "Number of T0 soybean plants with herbicide tolerance rating 2 (moderate tolerance)", "setting": "[1]", "value": 35}, {"measurement": "Number of T0 soybean plants with herbicide tolerance rating 3 (nearly perfect tolerance)", "setting": "[1]", "value": 12}, {"measurement": "mechanism of inhibition by diketonitrile (DKN), time-course of inhibition", "setting": "[2]", "value": "fully reversible inhibitors"}, {"measurement": "mechanism of inhibition by mesotrione (MST), time-course of inhibition", "setting": "[2]", "value": "fully reversible inhibitors"}, {"measurement": "mechanism of inhibition by tembotrione (TBT), time-course of inhibition", "setting": "[2]", "value": "fully reversible inhibitors"}, {"measurement": "tolerance (pI50) Cmpd. 1", "setting": "[2]", "value": 6.1}, {"measurement": "tolerance (pI50) Cmpd. 2", "setting": "[2]", "value": 5.8}, {"measurement": "tolerance (pI50) Cmpd. 3", "setting": "[2]", "value": 5.9}, {"measurement": "tolerance (pI50) Cmpd. 4", "setting": "[2]", "value": 6.6}, {"measurement": "tolerance (pI50) Cmpd. 5", "setting": "[2]", "value": 6.1}, {"measurement": "tolerance (pI50) DKN", "setting": "[2]", "value": 4.6}, {"measurement": "tolerance (pI50) MST", "setting": "[2]", "value": 5.0}, {"measurement": "tolerance (pI50) TBT", "setting": "[2]", "value": 6.2}, {"measurement": "Activity DeltaE/24 min μg Protein", "setting": "[3]", "value": 0.36, "unit": "DeltaE/24 min μg Protein"}, {"measurement": "tolerance (pI50) Cmpd. 2", "setting": "[3]", "value": 5.4}, {"measurement": "tolerance (pI50) DKN", "setting": "[3]", "value": 3.3}, {"measurement": "tolerance (pI50) MST", "setting": "[3]", "value": 3.7}, {"measurement": "tolerance (pI50) TBT", "setting": "[3]", "value": 4.8}]}, {"molecule": "FLP130: PfHPPD variant E335P, G336F, A340E (protein, HPPD variant - FLP130, PfHPPD variant E335P, G336F, A340E) MADLYENPMGLMGFEFIEFASPTPGTLEPIFEIMGFTKVATHRSKNVHLYRQGEINLILNNEPNSIASYFAAEHGPSVCGMAFRVKDSQKAYNRALELGAQPIHIDTGPMELNLPAIKGIGGAPLYLIDRFGEGSSIYDIDFVYLEGVERNPVGAGLKVIDHLTHNVYRGRMVYWANFYEKLFNFREARYFDIKGEYTGLTSKAMSAPDGMIRIPLNEESSKGAGQIEEFLMQFNGEGIQHVAFLTDDLVKTWDALKKIGMRFMTAPPDTYYEMLEGRLPDHGEPVDQLQARGILLDGSSVEGDKRLLLQIFSETLMGPVFFEFIQRKGDDGFGPFNFKELFESIERDQVRRGVLTAD", "values": [{"measurement": "Number of T0 soybean plants with herbicide tolerance rating 0 (completely bleached)", "setting": "[1]", "value": 3}, {"measurement": "Number of T0 soybean plants with herbicide tolerance rating 1 (slight tolerance)", "setting": "[1]", "value": 18}, {"measurement": "Number of T0 soybean plants with herbicide tolerance rating 2 (moderate tolerance)", "setting": "[1]", "value": 39}, {"measurement": "Number of T0 soybean plants with herbicide tolerance rating 3 (nearly perfect tolerance)", "setting": "[1]", "value": 11}, {"measurement": "mechanism of inhibition by diketonitrile (DKN), time-course of inhibition", "setting": "[2]", "value": "fully reversible inhibitors"}, {"measurement": "mechanism of inhibition by mesotrione (MST), time-course of inhibition", "setting": "[2]", "value": "fully reversible inhibitors"}, {"measurement": "mechanism of inhibition by tembotrione (TBT), time-course of inhibition", "setting": "[2]", "value": "fully reversible inhibitors"}, {"measurement": "tolerance (pI50) Cmpd. 1", "setting": "[2]", "value": 6.2}, {"measurement": "tolerance (pI50) Cmpd. 2", "setting": "[2]", "value": 6.2}, {"measurement": "tolerance (pI50) Cmpd. 3", "setting": "[2]", "value": 6.4}, {"measurement": "tolerance (pI50) Cmpd. 4", "setting": "[2]", "value": 6.6}, {"measurement": "tolerance (pI50) Cmpd. 5", "setting": "[2]", "value": 6.0}, {"measurement": "tolerance (pI50) DKN", "setting": "[2]", "value": 4.3}, {"measurement": "tolerance (pI50) MST", "setting": "[2]", "value": 5.3}, {"measurement": "tolerance (pI50) TBT", "setting": "[2]", "value": 6.2}, {"measurement": "Activity DeltaE/24 min μg Protein", "setting": "[3]", "value": 0.39, "unit": "DeltaE/24 min μg Protein"}, {"measurement": "tolerance (pI50) Cmpd. 2", "setting": "[3]", "value": 5.5}, {"measurement": "tolerance (pI50) DKN", "setting": "[3]", "value": 3.2}, {"measurement": "tolerance (pI50) MST", "setting": "[3]", "value": 3.7}, {"measurement": "tolerance (pI50) TBT", "setting": "[3]", "value": 4.8}]}]}
